These results are taken from patent US9809653B2, “Anti-LAMP1 antibodies and antibody drug conjugates, and uses thereof” (SANOFI, priority 2012, dated 2017).

Assay in all cases: Binding onto membrane-anchored hybrid or mutated LAMP1 proteins (293-F cells) by flow cytometry
Holding throughout (set-up): species or system human/mouse

Experiment [1] deals with Hybrid LAMP1 / glycan-deleted LAMP1 transmembrane proteins. Particulars: pXL6012 LAMP1_mseq1_ΔGYQTI; Table 18. As for the experimental part:
(§1) Different LAMP1 proteins were expressed at the cell membrane of HEK293 cells after transient expression from mammalian plasmids encoding the entire coding sequence of LAMP1 deleted of the intracellular lysosome-targeting motif GYQTI and substituted by a 5-Ala repeat sequence.
(§2) Two days post transfection cells were processed, analyzed by flow cytometry (Guava® easyCyte™ 8HT) as mentioned in example 4.7, and the mean fluorescence was recorded. This fluorescence represents a semi-quantitative assessment of binding.

In experiment [2] the target is T1, Hybrid LAMP1 / glycan-deleted LAMP1 transmembrane proteins (Mus musculus, UniProt P11438, E181G/G176S/K180R/N177S/S175N).
T1 construct: expressed in transfected cells; host or cells: 293-F (HEK293-derived), transient transfection
T1 sequence (P11438 with tags, fused parts or gaps S175N/G176S/N177S/K180R/E181G): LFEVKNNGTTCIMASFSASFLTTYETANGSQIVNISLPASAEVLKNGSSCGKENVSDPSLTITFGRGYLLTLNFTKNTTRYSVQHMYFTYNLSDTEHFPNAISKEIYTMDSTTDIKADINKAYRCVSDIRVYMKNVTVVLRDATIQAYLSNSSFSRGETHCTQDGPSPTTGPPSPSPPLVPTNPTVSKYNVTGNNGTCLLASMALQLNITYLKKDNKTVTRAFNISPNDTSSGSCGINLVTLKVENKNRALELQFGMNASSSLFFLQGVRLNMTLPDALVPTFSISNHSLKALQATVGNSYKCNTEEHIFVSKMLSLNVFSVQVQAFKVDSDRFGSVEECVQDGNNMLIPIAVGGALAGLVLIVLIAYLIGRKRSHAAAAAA
Particulars: pXL6048 mLAMP1_hseq11_ΔGYQTI. As for the experimental part:
as §1, §2

Experiment [3] deals with T2, Hybrid LAMP1 / glycan-deleted LAMP1 transmembrane proteins (Homo sapiens, UniProt P11279, D66S/F65I/K57A/K61Q/M63V/N62I/P60S/S58N/T64N).
T2 construct: expressed in transfected cells; host or cells: 293-F (HEK293-derived), transient transfection
T2 sequence (P11279 with tags, fused parts or gaps K57A/S58N/P60S/K61Q/N62I/M63V/T64N/F65I/D66S): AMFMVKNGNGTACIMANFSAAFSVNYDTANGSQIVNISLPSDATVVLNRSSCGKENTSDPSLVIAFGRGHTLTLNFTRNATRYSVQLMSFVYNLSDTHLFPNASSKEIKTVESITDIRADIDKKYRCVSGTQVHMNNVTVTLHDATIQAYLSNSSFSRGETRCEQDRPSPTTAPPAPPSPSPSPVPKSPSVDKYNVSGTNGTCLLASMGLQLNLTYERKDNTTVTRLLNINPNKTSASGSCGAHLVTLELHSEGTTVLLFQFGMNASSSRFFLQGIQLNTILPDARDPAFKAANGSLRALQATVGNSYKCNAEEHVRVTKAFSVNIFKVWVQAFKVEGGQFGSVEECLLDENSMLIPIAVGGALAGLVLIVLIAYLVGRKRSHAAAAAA
Particulars: pXL6014 LAMP1_mseq3_ΔGYQTI; Table 18. As for the experimental part:
as §1, §2

The target of experiment [4] is T3, Hybrid LAMP1 / glycan-deleted LAMP1 transmembrane proteins (Mus musculus, UniProt P11438, K100R/L93T/T102A/Y92H).
T3 construct: expressed in transfected cells; host or cells: 293-F (HEK293-derived), transient transfection
T3 sequence (P11438 with tags, fused parts or gaps Y92H/L93T/K100R/T102A): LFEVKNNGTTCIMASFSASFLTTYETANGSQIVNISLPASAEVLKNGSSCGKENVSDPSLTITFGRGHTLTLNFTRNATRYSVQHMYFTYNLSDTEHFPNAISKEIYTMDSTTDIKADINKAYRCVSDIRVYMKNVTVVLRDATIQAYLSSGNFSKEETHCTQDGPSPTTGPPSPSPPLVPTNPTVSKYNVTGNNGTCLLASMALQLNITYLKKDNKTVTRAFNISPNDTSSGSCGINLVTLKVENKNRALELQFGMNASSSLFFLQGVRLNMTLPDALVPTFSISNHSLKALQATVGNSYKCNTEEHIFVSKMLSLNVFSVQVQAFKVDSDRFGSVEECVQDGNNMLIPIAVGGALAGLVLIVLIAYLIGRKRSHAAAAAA
Conditions: pXL6047 mLAMP1_hseq6_ΔGYQTI. On the procedure: as §1, §2

For experiment [5], the target named is T4, Hybrid LAMP1 / glycan-deleted LAMP1 transmembrane proteins (Homo sapiens, UniProt P11279, D70S/L75K/R77G/S69A/T72E/V74L).
T4 construct: expressed in transfected cells; host or cells: 293-F (HEK293-derived), transient transfection
T4 sequence (P11279 with tags, fused parts or gaps S69A/D70S/T72E/V74L/L75K/R77G): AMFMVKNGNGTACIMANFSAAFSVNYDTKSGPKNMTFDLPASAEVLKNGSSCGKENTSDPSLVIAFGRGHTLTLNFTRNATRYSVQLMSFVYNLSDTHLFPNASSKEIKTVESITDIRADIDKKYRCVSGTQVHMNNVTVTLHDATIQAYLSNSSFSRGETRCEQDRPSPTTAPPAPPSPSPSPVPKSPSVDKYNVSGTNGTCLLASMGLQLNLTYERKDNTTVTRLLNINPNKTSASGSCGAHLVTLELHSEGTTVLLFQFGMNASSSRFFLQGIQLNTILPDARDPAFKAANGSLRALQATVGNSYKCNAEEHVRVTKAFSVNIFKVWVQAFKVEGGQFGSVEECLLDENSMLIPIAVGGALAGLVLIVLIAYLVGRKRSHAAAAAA
Conditions: pXL6015 LAMP1_mseq4_ΔGYQTI; Table 18. As for the experimental part: as §1, §2

Chain of Hybrid LAMP1 / glycan-deleted LAMP1 transmembrane proteins (as listed by the source, stated change not applied): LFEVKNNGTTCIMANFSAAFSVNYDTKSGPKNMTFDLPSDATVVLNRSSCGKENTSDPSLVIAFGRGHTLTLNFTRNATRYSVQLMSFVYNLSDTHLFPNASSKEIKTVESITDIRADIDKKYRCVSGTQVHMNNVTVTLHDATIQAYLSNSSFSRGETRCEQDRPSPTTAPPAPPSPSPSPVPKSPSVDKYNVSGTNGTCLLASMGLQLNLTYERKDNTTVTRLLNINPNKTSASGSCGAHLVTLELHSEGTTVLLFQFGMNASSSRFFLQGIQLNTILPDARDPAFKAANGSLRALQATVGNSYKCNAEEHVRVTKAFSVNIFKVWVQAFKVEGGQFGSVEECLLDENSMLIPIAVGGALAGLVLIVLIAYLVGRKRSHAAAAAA

B1: MAb1: murine monoclonal anti-LAMP1 antibody, VH SEQ ID NO: 1, VL SEQ ID NO: 5 (antibody, V domains shown)
VH: QVQLQQSGAELVKPGASVKMSCKASGYIFTNYNIHWVKKSPGQGLEWIGAIYPGNGDAPYSQKFKDKATLTADKSSSTTYMQLSRLTSEDSAVYYCVRANWDVAFAYWGQGTLVSVSA
VL: DIQMTQSPPSLSASLGGKVTITCKASQDIDRYMAWYQDKPGKGPRLLIHDTSTLQPGIPSRFSGSGSGRDYSFSISNLEPEDIATYYCLQYDNLWTFGGGTKLEIK
modifications: Antibody Fragment; antibody fragment
Turning to B1, the Mean fluorescence in experiment [1] came out at 1027; in experiment [2] (Table 17 Experiment no1), 6; in experiment [2] (Table 17 Experiment no2), 2; in experiment [3] it was 888; in experiment [4] (Table 17 Experiment no1) it was 7; in experiment [4] (Table 17 Experiment no2), 3. This molecule came in with a Mean fluorescence in experiment [5] of 891. Further, the Binding call in experiment [2] (Table 17 Experiment no1) is listed as “No binding”; in experiment [2] (Table 17 Experiment no2), “No binding”; in experiment [3], “Binding”; in experiment [4] (Table 17 Experiment no1), “No binding”; in experiment [4] (Table 17 Experiment no2), “No binding”; in experiment [5], “Binding”.

B2: MAb2: murine monoclonal anti-LAMP1 antibody, VH SEQ ID NO: 8, VL SEQ ID NO: 12 (antibody, V domains shown)
VH: QVQLQQSAAELARPGASVKMSCKASGYTFTSYTMHWVKQRPGQGLEWIGYFNPSSGYPEYNQKFKDKTTLTADKSSNTAFIQLNSLTSEDSAVYYCSRGYYYGSRGYALDFWGQGASVTVSS
VL: NIVLTQSPVSLAVSLGQRATISCRASESVDINGNTFMHWYQQKPGQSPKLVIYAASNIESGVPARFSGSGSSTDFTFTIDPVEADDVATYYCQQNIEDPWTFGGGTKVEIK
modifications: antibod fragment; antibody fragment
In the case of B2, the Binding call in experiment [1] was “Low binding”; in experiment [2] (Table 17 Experiment no1), “No binding”; in experiment [3], “Binding”; in experiment [4] (Table 17 Experiment no1), “No binding”; in experiment [5], “No binding”. For the same molecule, the Mean fluorescence in experiment [1] is on record as 105; in experiment [2] (Table 17 Experiment no1) it was 28; in experiment [3], 694; in experiment [4] (Table 17 Experiment no1), 25; in experiment [5] it was 27.
